The RNAGym collection of RNA variant scans (doi:10.7554/elife.80360)

B1: HDV Ribozyme (parent)
chain: GGCCGGCAUGGUCCCAGCCUCCUCGCUGGCGCCGGCUGGGCAACAUUCCGAGGGGACCGUCCCCUCGGUAAUGGCGAAUGGGACCCA

Variants of: B1
Test: self-cleavage, relative activity (ratio to wild type); higher = more cleavage; co-transcriptional

| Variant | self-cleavage |
| --- | --- |
| GGCCGGCAUGGUCCCAGCCUCCUAGCUGGCGCCGGCUCGGCAACAUUCCGAGGGGACCGUCCCCUCGGUAAUGGCGAAUGGGACCCA [C24A G38C] | 0.199 |
| GGCCGGCAUGGUCCCAGCCUCCUAGCUGGCGCCGGCUAGGCAACAUUCCGAGGGGACCGUCCCCUCGGUAAUGGCGAAUGGGACCCA [C24A G38A] | 0.208 |
| GGCCGGCAUGGUCCCAGCCUCCUAGCUGGCACCGGCUGGGCAACAUUCCGAGGGGACCGUCCCCUCGGUAAUGGCGAAUGGGACCCA [C24A G31A] | 0.0332 |
| GGCCGGCAUGGUCCCAGCCUCCUAGCUGGCUCCGGCUGGGCAACAUUCCGAGGGGACCGUCCCCUCGGUAAUGGCGAAUGGGACCCA [C24A G31U] | 0.0519 |
| GGCCGGCAUGGUCCCAGCCUCCUAGCUGGCGCCGGCUGGGUAACAUUCCGAGGGGACCGUCCCCUCGGUAAUGGCGAAUGGGACCCA [C24A C41U] | 0.354 |
| GGCCGGCAUGGUCCCAGCCUCCUAGCUGGCGCCGGCUGGGAAACAUUCCGAGGGGACCGUCCCCUCGGUAAUGGCGAAUGGGACCCA [C24A C41A] | 0.369 |
| GGCCGGCAUGGUCCCAGCCUCCUAGCUGGCGCCGGCUGGGCAACAUUCCGAGGGGACCGUCCCCUCGGUAAUGGCGAAUGGCACCCA [C24A G82C] | 0.249 |
| GGCCGGCAUGGUCCCAGCCUCCUAGCUGGCGCCGGCUGGGCAACAUUCCGAGGGGACCGUUCCCUCGGUAAUGGCGAAUGGGACCCA [C24A C61U] | 0.757 |
| GGCCGGCAUGGUCCCAGCCUCCUAGCUGGCGCCGGCUGGGCAACAUUCCGAGGGGACCGUGCCCUCGGUAAUGGCGAAUGGGACCCA [C24A C61G] | 0.678 |
| GGCCGGCAUGGUCCCAGCCUCCUAGCUGGCGUCGGCUGGGCAACAUUCCGAGGGGACCGUCCCCUCGGUAAUGGCGAAUGGGACCCA [C24A C32U] | 0.619 |
| GGCCGGCAUGGUCCCAGCCUCCUAGCUGGCGGCGGCUGGGCAACAUUCCGAGGGGACCGUCCCCUCGGUAAUGGCGAAUGGGACCCA [C24A C32G] | 0.213 |
| GGCCGGCAUGGUCCCAGCCUCCUAGCUGGCGCCGGCUGGGCAACAUUCCGAGGGGACCGUCCCGUCGGUAAUGGCGAAUGGGACCCA [C24A C64G] | 0.749 |
| GGCCGGCAUGGUCCCAGCCUCCUAGCUGGCGCCGGCUGGGCAACAUUCCGAGGGGACCGUCCCUUCGGUAAUGGCGAAUGGGACCCA [C24A C64U] | 0.866 |
| GGCCGGCAUGGUCCCAGCCUCCUAGCUGGCGCCGGAUGGGCAACAUUCCGAGGGGACCGUCCCCUCGGUAAUGGCGAAUGGGACCCA [C24A C36A] | 0.175 |
| GGCCGGCAUGGUCCCAGCCUCCUAGCUGGCGCCGGCUGGGCAACAUUCCGAGGGGACCGUCCGCUCGGUAAUGGCGAAUGGGACCCA [C24A C63G] | 0.723 |
| GGCCGGCAUGGUCCCAGCCUCCUAGCUGGCGCCGGCUGGGCAACAUUCCGAGGGGACCGUCCACUCGGUAAUGGCGAAUGGGACCCA [C24A C63A] | 0.882 |
| GGCCGGCAUGGUCCCAGCCUCCUAGCUGGCGCCGGCUGGGCAACAUUCCGAGGGGACCGUCCUCUCGGUAAUGGCGAAUGGGACCCA [C24A C63U] | 0.692 |
| GGCCGGCAUGGUCCCAGCCUCCUAGCUGGCGCCGGCUGGGCAACAUUCCGAGGGGACCGUCCCCUCGGUAAUGGAGAAUGGGACCCA [C24A C75A] | 0.219 |
| GGCCGGCAUGGUCCCAGCCUCCUAGCUGGCGCCGGCUGGGCAACAUUCCGAGGGGAACGUCCCCUCGGUAAUGGCGAAUGGGACCCA [C24A C57A] | 0.842 |
| GGCCGGCAUGGUCCCAGCCUCCUAACUGGCGCCGGCUGGGCAACAUUCCGAGGGGACCGUCCCCUCGGUAAUGGCGAAUGGGACCCA [C24A G25A] | 0.102 |
| GGCCGGCAUGGUCCCAGCCUCCUAGCUGGCGCCGGCUGGGCAACAUUCCUAGGGGACCGUCCCCUCGGUAAUGGCGAAUGGGACCCA [C24A G50U] | 0.641 |
| GGCCGGCAUGGUCCCAGCCUCCUAGCUGGCGCCGGCUGGGCAACAUUCCAAGGGGACCGUCCCCUCGGUAAUGGCGAAUGGGACCCA [C24A G50A] | 0.688 |

| Variant | self-cleavage |
| --- | --- |
| GGCCGGCAUGGUCCCAGCCUCCUAGCUGGCGCCGGCUGGGCAACAUUCCGAGGGGACCGUCCCCUCGGUAAUGACGAAUGGGACCCA [C24A G74A] | 0.12 |
| GGCCGGCAUGGUCCCAGCCUCCUAGCUGGCGCCGGCUGGGCAACAUUCCGAGGGGACCGUCCCCUCGGUAAUGUCGAAUGGGACCCA [C24A G74U] | 0.16 |
| GGCCGGCAUGGUCCCAGCCUCCUAGCUGGCGCCGGCUGGGCAACAUUCCGAGGGGACAGUCCCCUCGGUAAUGGCGAAUGGGACCCA [C24A C58A] | 0.863 |
| GGCCGGCAUGGUCCCAGCCUCCUAGCUGGCGCCGGCUGGGCAACAUUCCGAGGGGACGGUCCCCUCGGUAAUGGCGAAUGGGACCCA [C24A C58G] | 0.855 |
| GGCCGGCAUGGUCCCAGCCUCCUAGCUGGCGCCGGCUGGGCAACAUUCCGAGGGGACUGUCCCCUCGGUAAUGGCGAAUGGGACCCA [C24A C58U] | 0.742 |
| GGCCGGCAUGGUCCCAGCCUCCUAGCUGGCGCCGGCUGGGCAACAUUCCGAGGGGACCGUCCCCUGGGUAAUGGCGAAUGGGACCCA [C24A C66G] | 0.731 |
| GGCCGGCAUGGUCCCAGCCUCCUAGCUGGCGCCGGCUGGGCAACAUUCCGAGGGGACCGUCCCCUUGGUAAUGGCGAAUGGGACCCA [C24A C66U] | 0.69 |
| GGCCGGCAUGGUCCCAGCCUCCUAGCUGGCGCCGGCUGGGCAACAUUCCGAGGGCACCGUCCCCUCGGUAAUGGCGAAUGGGACCCA [C24A G55C] | 0.818 |
| GGCCGGCAUGGUCCCAGCCUCCUAGCUGGCGCCGGCUGGGCAACAUUCCGAGGGGACCGUCCCCUCGGUAAUGGCGAAUGGGACCAA [C24A C86A] | 0.607 |
| GGCCGGCAUGGUCCCAGCCUCCUAGCUGGCGCCGGCUGGGCAACAUUCCGAGGGGACCGUCCCCUCGGUAAUGGCGAAUGGGACCGA [C24A C86G] | 0.724 |
| GGCCGGCAUGGUCCCAGCCUCCUAGCUGGCGCCGGCUGGGCAACAUUCCGAGGGGACCGUCCCCUCAGUAAUGGCGAAUGGGACCCA [C24A G67A] | 0.802 |
| GGCCGGCAUGGUCCCAGCCUCCUAGCUGGCGCCGGCUGGGCAACAUUCCGAGGGGACCGUCCCCUCUGUAAUGGCGAAUGGGACCCA [C24A G67U] | 0.831 |
| GGCCGGCAUGGUCCCAGCCUCCUAGCUGGCGCCGGCUGGGCAACAUUCCGACGGGACCGUCCCCUCGGUAAUGGCGAAUGGGACCCA [C24A G52C] | 0.803 |
| GGCCGGCAUGGUCCCAGCCUCCUAGCUGGCGCCGGCUGGGCAACAUUCCGAAGGGACCGUCCCCUCGGUAAUGGCGAAUGGGACCCA [C24A G52A] | 1.1 |
| GGCCGGCAUGGUCCCAGCCUCCUAGCUGGCGCCGGCUGGGCAACAUUCAGAGGGGACCGUCCCCUCGGUAAUGGCGAAUGGGACCCA [C24A C49A] | 0.65 |
| GGCCGGCAUGGUCCCAGCCUCCUAGCUGGCGCCGGCUGGGCAACAUUCCGAGGGGACCGUCCCCUCGGUAAUUGCGAAUGGGACCCA [C24A G73U] | 0.288 |
| GGCCGGCAUGGUCCCAGCCUCCUAGCUGGCGCCGGCUGGGCAACAUUCCGAGGGGACCGUCCCCUCGGUAAUAGCGAAUGGGACCCA [C24A G73A] | 0.234 |
| GGCCGGCAUGGUCCCAGCCUCCUAGCUGGCGCCGGCUGGGCAACAUUCCGAGGGGACCGUCCCCUCGGUAAUCGCGAAUGGGACCCA [C24A G73C] | 0.211 |
| GGCCGGCAUGGUCCCAGCCUCCUAGCUGACGCCGGCUGGGCAACAUUCCGAGGGGACCGUCCCCUCGGUAAUGGCGAAUGGGACCCA [C24A G29A] | 0.106 |
| GGCCGGCAUGGUCCCAGCCUCCUAGCUGGCGCCGGCUGGCCAACAUUCCGAGGGGACCGUCCCCUCGGUAAUGGCGAAUGGGACCCA [C24A G40C] | 0.117 |
| GGCCGGCAUGGUCCCAGCCUCCUAGCUGGCGCCGGCUGGACAACAUUCCGAGGGGACCGUCCCCUCGGUAAUGGCGAAUGGGACCCA [C24A G40A] | 0.809 |
| GGCCGGCAUGGUCCCAGCCUCCUAGCUGGCGCUGGCUGGGCAACAUUCCGAGGGGACCGUCCCCUCGGUAAUGGCGAAUGGGACCCA [C24A C33U] | 0.363 |

| Variant | self-cleavage |
| --- | --- |
| GGCCGGCAUGGUCCCAGCCUCCUAGCUGGCGCAGGCUGGGCAACAUUCCGAGGGGACCGUCCCCUCGGUAAUGGCGAAUGGGACCCA [C24A C33A] | 0.0811 |
| GGCCGGCAUGGUCCCAGCCUCCUAGCUGGCGCGGGCUGGGCAACAUUCCGAGGGGACCGUCCCCUCGGUAAUGGCGAAUGGGACCCA [C24A C33G] | 0.142 |
| GGCCGGCAUGGUCCCAGCCUCCUAGCUGGCGCCGGCUGAGCAACAUUCCGAGGGGACCGUCCCCUCGGUAAUGGCGAAUGGGACCCA [C24A G39A] | 0.0779 |
| GGCCGGCAUGGUCCCAGCCUCCUAGCUGGCGCCGGCUGCGCAACAUUCCGAGGGGACCGUCCCCUCGGUAAUGGCGAAUGGGACCCA [C24A G39C] | 0.0692 |
| GGCCGGCAUGGUCCCAGCCUCCUAGCUGGCGCCGGCUGGGCAACAUUCCGAGGGGACCGUCCCCUCGGUAAUGGCGAAUAGGACCCA [C24A G80A] | 0.131 |
| GGCCGGCAUGGUCCCAGCCUCCUAGCUGGCGCCGGCUGGGCAACAUUCCGAGGGGACCGUCCCCUCGGUAAUGGCGAAUCGGACCCA [C24A G80C] | 0.262 |
| GGCCGGCAUGGUCCCAGCCUCCUAGCUGGCGCCGUCUGGGCAACAUUCCGAGGGGACCGUCCCCUCGGUAAUGGCGAAUGGGACCCA [C24A G35U] | 0.298 |
| GGCCGGCAUGGUCCCAGCCUCCUAGCUGGCGCCGGCUGGGCAACAUUCCGAGGGGACCGUCCCCUCGGUAAUGGCGAAUGGGACGCA [C24A C85G] | 0.69 |
| GGCCGGCAUGGUCCCAGCCUCCUAGCUGGCGCCGGCUGGGCAACAUUCCGAGGGGACCGUCCCCUCGGUAAUGGCGAAUGGGACUCA [C24A C85U] | 0.594 |
| GGCCGGCAUGGUCCCAGCCUCCUAGCUGGCGCCGGCUGGGCAACAUUUCGAGGGGACCGUCCCCUCGGUAAUGGCGAAUGGGACCCA [C24A C48U] | 0.799 |
| GGCCGGCAUGGUCCCAGCCUCCUAGCUGGCGCCGGCUGGGCAACAUUGCGAGGGGACCGUCCCCUCGGUAAUGGCGAAUGGGACCCA [C24A C48G] | 0.47 |
| GGCCGGCAUGGUCCCAGCCUCCUAGCUGGCGCCGGCUGGGCAACAUUCCGAGGUGACCGUCCCCUCGGUAAUGGCGAAUGGGACCCA [C24A G54U] | 0.736 |
| GGCCGGCAUGGUCCCAGCCUCCUAGCUGGCGCCGGCUGGGCAACAUUCCGAGGGGACCGUCCCCUCGGUAAUGGCAAAUGGGACCCA [C24A G76A] | 0.769 |
| GGCCGGCAUGGUCCCAGCCUCCUAGCUGGCGCCGGCUGGGCAACAUUCCGAGGGGACCGUCCCCUCGGUAAUGGCUAAUGGGACCCA [C24A G76U] | 0.842 |
| GGCCGGCAUGGUCCCAGCCUCCUAGCUGGCGCCGGCUGGGCAACAUUCCGAGGGGACCGUCCCCUCGGUAAUGGCCAAUGGGACCCA [C24A G76C] | 0.936 |
| GGCCGGCAUGGUCCCAGCCUCCUAGCUGGCGCCGGCUGGGCAACAUUCCGAGGGGACCUUCCCCUCGGUAAUGGCGAAUGGGACCCA [C24A G59U] | 0.783 |
| GGCCGGCAUGGUCCCAGCCUCCUAGCUGGCGCCGGCUGGGCAACAUUCCGAGGGGACCGUCCCCUCGGUAAUGGCGAAUGGGAACCA [C24A C84A] | 0.787 |
| GGCCGGCAUGGUCCCAGCCUCCUAGCUGGCGCCGGCUGGGCAAGAUUCCGAGGGGACCGUCCCCUCGGUAAUGGCGAAUGGGACCCA [C24A C44G] | 0.256 |
| GGCCGGCAUGGUCCCAGCCUCCUAGCUGGCGCCGGCUGGGCAAUAUUCCGAGGGGACCGUCCCCUCGGUAAUGGCGAAUGGGACCCA [C24A C44U] | 0.0831 |
| GGCCGGCAUGGUCCCAGCCUCCUAGCUGGCGCCGGCUGGGCAACAUUCCGAGGGGACCGUCCCCUCGCUAAUGGCGAAUGGGACCCA [C24A G68C] | 0.628 |
